The labels stand for the following.
B1: integrin β3 cytoplasmic tail (β3 CT, K716-T762) (domain or fragment, human, UniProt P05106 742-788, looked up)
chain: KLLITIHDRKEFAKFEEERARAKWDTANNPLYKEATSTFTNITYRGT
B6: integrin αIIb cytoplasmic tail (αIIb CT, W988-E1008) (peptide, UniProt P08514 1019-1039, looked up)
chain: WKVGFFKRNRPPLEEDDEEGE
B7: β3-CT L717K-L718K mutant (domain or fragment, human, UniProt P05106 742-788, looked up)
chain: KKKITIHDRKEFAKFEEERARAKWDTANNPLYKEATSTFTNITYRGT

In test [1] the target is T1, FLNa-Ig21 E2276A (human, UniProt P21333 2236-2330, E2276A).
T1 sequence: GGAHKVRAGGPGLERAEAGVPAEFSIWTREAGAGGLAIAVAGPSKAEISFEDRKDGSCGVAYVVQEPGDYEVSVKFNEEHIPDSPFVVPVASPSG
Briefly: NMR titration.

Test [2] concerns the target T2, filamin A immunoglobulin repeat 21 (FLNa-Ig21) (human, UniProt P21333 2236-2330).
T2 sequence: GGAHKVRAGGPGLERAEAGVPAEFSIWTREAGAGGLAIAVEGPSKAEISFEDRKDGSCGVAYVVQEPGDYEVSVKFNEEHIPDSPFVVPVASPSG
As to the kind of experiment: NMR titration.

Test [3] deals with T3, β3 transmembrane-cytoplasmic domain (β3 TMCD, K689-T762) (human, UniProt P05106 715-788).
T3 sequence (looked up): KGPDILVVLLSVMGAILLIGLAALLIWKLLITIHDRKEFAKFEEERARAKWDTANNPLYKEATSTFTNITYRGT
Briefly: NMR titration.

The target of test [4] is B6. As to the kind of experiment: SPR.
For test [5], the target named is B1. As to the kind of experiment: NMR titration.
The target in test [6] is T2, filamin A immunoglobulin repeat 21 …. As to the kind of experiment: SPR. (SPR reads the build-up and loss of mass on a sensor chip optically.)
Test [7] concerns the target T4, FLNa-Ig21 A2268K (human, UniProt P21333 2236-2330, A2268K).
T4 sequence: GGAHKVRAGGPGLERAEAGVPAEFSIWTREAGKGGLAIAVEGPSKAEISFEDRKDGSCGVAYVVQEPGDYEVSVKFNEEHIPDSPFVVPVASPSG
As to the kind of experiment: NMR titration.

In test [8] the target is T5, FLNa-Ig21 pre-saturated β3-CT (human, UniProt P21333 2236-2330; P05106 742-788).
T5 sequence 1: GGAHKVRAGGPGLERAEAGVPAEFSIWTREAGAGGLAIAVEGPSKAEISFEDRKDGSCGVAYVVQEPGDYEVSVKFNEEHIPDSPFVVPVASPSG
T5 sequence 2: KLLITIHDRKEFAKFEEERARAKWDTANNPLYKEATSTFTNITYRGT
Briefly: SPR.

For test [9], the target named is B1.
Test [10] concerns the target T6, GST-FLNa-Ig21-β3 CT chimera (human, UniProt P05106 742-788; P21333 2236-2330).
T6 chain: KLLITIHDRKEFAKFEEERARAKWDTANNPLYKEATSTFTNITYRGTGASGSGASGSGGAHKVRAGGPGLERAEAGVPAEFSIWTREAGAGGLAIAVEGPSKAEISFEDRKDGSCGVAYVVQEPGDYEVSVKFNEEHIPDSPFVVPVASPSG
Briefly: pull-down.

Test [11] addresses B7. As to the kind of experiment: NMR structure.

B1: the binding result in [1] and in [2] was “binds” each time.

B2: αIIb transmembrane-cytoplasmic domain (αIIb TMCD, E960-E1008) (domain or fragment)
chain: not shown
On to B2, for which the binding result in test [3] is given as “binds”.

B3: FLNa-Ig21-β3-CT chimera (other, human)
chain: KLLITIHDRKEFAKFEEERARAKWDTANNPLYKEATSTFTNITYRGTGASGSGASGSGGAHKVRAGGPGLERAEAGVPAEFSIWTREAGAGGLAIAVEGPSKAEISFEDRKDGSCGVAYVVQEPGDYEVSVKFNEEHIPDSPFVVPVASPSG
With B3, the Kd (commonly a measure of binding affinity in units of concentration) in test [4] is approximately 19 µM.

B4: αIIb CT K994E-R997E mutant (peptide, UniProt P08514 1019-1039, looked up)
chain: WKVGFFERNEPPLEEDDEEGE
As to B4, the binding result in [5] is “binds”.

B5: integrin β3 membrane-proximal fragment β3-N (K716-W739) (peptide, UniProt P05106 742-765, looked up)
chain: KLLITIHDRKEFAKFEEERARAKW
Molecule B5 had a Kd in [6] of approximately 223 µM. Turning to B6, the binding result in [7], in test [8], in [10] and in test [11] was “binds” in each case. Besides, in test [9], the Kd was approximately 368 µM. For B7, in test [2], the binding result is recorded as “binds”.
